One may read the Kd as the concentration at which binding is half-saturated. A low value points to tighter binding.

For this assay, the target named is p38α kinase (residues 1–360 of human p38α) (human, UniProt Q16539 1-360). The assay is described as follows: ITC. On the technique in general: Isothermal titration calorimetry measures the heat released or taken up as one component is titrated into another.
p38α kinase (residues 1–360 of human p38α), sequence (Q16539 whole entry, the tested form may be a part): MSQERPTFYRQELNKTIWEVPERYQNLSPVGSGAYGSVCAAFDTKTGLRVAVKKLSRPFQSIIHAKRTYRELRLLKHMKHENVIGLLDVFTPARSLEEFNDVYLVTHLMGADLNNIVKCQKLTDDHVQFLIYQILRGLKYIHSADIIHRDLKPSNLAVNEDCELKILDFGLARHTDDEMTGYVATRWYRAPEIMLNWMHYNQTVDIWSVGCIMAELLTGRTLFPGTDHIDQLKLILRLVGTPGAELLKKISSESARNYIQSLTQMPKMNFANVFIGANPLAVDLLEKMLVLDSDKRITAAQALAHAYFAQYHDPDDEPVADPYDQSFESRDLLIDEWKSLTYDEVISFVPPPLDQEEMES

B1: regulatory domain of MKK4 (residues 12–86) with N-terminal thioredoxin and 6xHis tag, unlabeled, for ITC (domain or fragment)
chain: SGGGSGSGTPGPVGSPAPGHPAVSSMQGKRKALKLNFANPPFKSTARFTLNPNPTGVQNPHIERLRTHSIESSGK
In turn, B1 yielded a Kd of 4.1 µM.

These data come from paper PMC8391806 (2021).
